Reference: patent US20090004190A1, “Rage Fusion Proteins And Methods Of Use” (priority 2006, published 2009)

Columns and labels:
Fc receptor = Fc receptor activation: TNF-α secretion from THP-1 cells; assay type: cell-based; settings: well precoated with 10 ug/well heat aggregated protein, 24 hours, FIG. 12
Source text: Fc stimulation results in TNF-α secretion.

[1] = Pharmacokinetic profile of TTP-4000 after IV injection (plasma ELISA); assay type: in vivo; settings: monkeys, single IV bolus 5 mg/kg, after ligands saturated, FIG. 11
Procedure: Blood samples (approximately 1.0 mL) were collected at pre-dose (i.e., prior to injection of the TTP4000), or at 0.083, 0.25, 0.5, 2, 4, 8, 12, 24, 48, 72, 96, 120, 168, 240, 288, and 336 hours post dose into tubes containing (lithium heparin). Following collection, the tubes were placed on wet ice (maximum 30 minutes) until centrifugation under refrigeration (at 2 to 8° C.) at 1500×g for 15 minutes. Each harvested plasma sample was then stored frozen (−70° C.±10° C.) until assayed for RAGE polypeptide using an ELISA at various time-points following the injection, as described in Example 6.
Initially, 50 uL of the RAGE specific monoclonal antibody 1HB1011 at a concentration of 10 ug/mL in 1×PBS pH 7.3 is coated on plates via overnight incubation. When ready for use, plates are washed three times with 300 uL of 1× Imidazole-Tween wash buffer and blocked with 1% BSA. […] The samples are allowed to incubate at room temperature for one hour. After incubation, the plates are plates are washed three times. A Goat Anti-human IgG11 (Sigma A3312) […] conjugate in 1×PBS with 1% BSA is added and allowed to incubate at room temperature for 1 hour. The plates are washed three times. Color was elucidated with paranitrophenylphosphate.

[2] = test system: S100b/RAGE-induced production of TNF-α in THP-1 cells; test: Inhibition of S100b/RAGE-induced production of TNF-α in THP-1 cells; assay type: cell-based; settings: 10 μg protein, FIG. 10
Source text: Use of the RAGE fusion proteins of the present invention to modulate expression of the cellular effector TNF-α is shown in FIG. 10. THP-1 myeloid cells may be cultured in RPMI-1640 media supplemented with 10% FBS and induced to secrete TNF-α via stimulation of RAGE with S100b. When such stimulation occurs in the presence of a RAGE fusion protein, induction of TNF-α by S100b binding to RAGE may be inhibited.
Previous work has shown that the myeloid THP-1 cells may secrete TNF-α in response to RAGE ligands. In this assay, THP-1 cells were cultured in RPMI-1640 media supplemented with 10% FBS using a protocol provided by ATCC. […] The amount of TNF-α secreted by the THP-1 cells was measured 24 hours after the addition of the proteins to the cell culture using a commercially available ELISA kit for TNF-α (R&D Systems, Minneapolis, Minn.).

[3] = test system: transgenic mice expressing human Swedish mutant APP; test: Mouse model of AD (APP transgenic mice): amyloid deposition and Morris water maze; assay type: in vivo
Procedure: Experiments were performed to evaluate whether TTP-4000 could affect amyloid formation and cognitive dysfunction in a mouse model of AD. The experiments utilized transgenic mice expressing the human Swedish mutant amyloid precursor protein (APP) under the control of the PDGF-B chain promoter. Over time, these mice generate high levels of the RAGE ligand, amyloid beta (Aβ).
The APP mice (male) used in this experiment were designed by microinjection of the human APP gene (with the Swedish and London mutations) into mouse eggs under the control of the platelet-derived growth factor B (PDGF-B) chain gene promoter. The mice were generated on a C57BL/6 background and were developed by Molecular Therapeutics Inc. Animals were fed ad libitum and maintained by brother sister mating. The mice generated from this construct develop amyloid deposits starting at 6 months of age. Animals were aged for 6 months and then maintained for 90 days and sacrificed for amyloid quantification.
APP transgenic mice were administered vehicle or TTP4000 every other day [qod (i.p.)] for 90 days starting at 6 months of age. At the end of the experiment, animals were sacrificed and examined for Aβ plaque burden in the brain (i.e., plaque number). A 6-month control APP group was used to determine the baseline of amyloid deposits. In addition, at the end of the study, the animals were subjected to behavioral (Morris water maze) analysis. The investigators were blinded to the study compounds. Samples were given to the mice at 0.25 ml/mouse/every other day.
For histological examination, the animals were anesthetized with an intraperitoneal injection (IP) of sodium pentobarbital (50 mg/kg). The animals were transcardially perfused with 4° C., phosphate-buffered saline (PBS) followed by 4% paraformaldehyde. The brains were removed and placed in 4% paraformaldehyde over night. The brains were processed to paraffin and embedded. Ten serial 30-μm thick sections through the brain were obtained. Sections were subjected to primary antibody overnight at 4° C. (Aβ peptide antibody) in order to detect the amyloid deposits in the brain of the transgenic animals (Guo et al., J. Neurosci., 22:5900-5909 (2002)). Sections were washed in Tris-buffered saline (TBS) and secondary antibody was added and incubated for 1 hour at room temperature. After washing, the sections were incubated as instructed in the Vector ABC Elite kit (Vector Laboratories) and stained with […] (DAB). The reactions were stopped in water and cover-slipped after treatment with xylene. The amyloid area in each section was determined with a computer-assisted image analysis system, consisting of a Power Macintosh computer equipped with a Quick Capture frame grabber card, Hitachi CCD camera mounted on an Olympus microscope and camera stand. NIH Image Analysis Software, v. 1.55 was used. The images were captured and the total area of amyloid was determined over the ten sections. A single operator blinded to treatment status performed all measurements. Summing the amyloid volumes of the sections and dividing by the total number of sections was done to calculate the amyloid volume.
For quantitative analysis, an enzyme-linked immunosorbent assay (ELISA) was used to measure the levels of human total Aβ, Aβtotal and Aβ1-42 in the brains of APP transgenic mice (Biosource International, Camarillo, Calif.). Aβtotal and Aβ1-42 were extracted from mouse brains by guanidine hydrochloride and quantified as described by the manufacturer. […]

B1: TTP-4000: four domain RAGE fusion protein: human RAGE V and C1 domains with interdomain linkers (to residue 251) fused to human IgG1 CH2 and CH3; SEQ ID NO: 34/56 (protein, listed as Homo sapiens)
chain: QNITARIGEPLVLKCKGAPKKPPQRLEWKLNTGRTEAWKVLSPQGGGPWDSVARVLPNGSLFLPAVGIQDEGIFRCQAMNRNGKETKSNYRVRVYQIPGKPEIVDSASELTAGVPNKVGTCVSEGSYPAGTLSWHLDGKPLVPNEKGVSVKEQTRRHPETGLFTLQSELMVTPARGGDPRPTFSCSFSPGLPRHRALRTAPIQPRVWEPVPLEEVQLVVEPEGGAVAPPSVFLFPPKPKDTLMISRTPEVTCVVVDVSHEDPEVKFNWYVDGVEVHNAKTKPREEQYNSTYRVVSVLTVLHQDWLNGKEYKCKVSNKALPAPIEKTISKAKGQPREPQVYTLPPSRDELTKNQVSLTCLVKGFYPSDIAVEWESNGQPENNYKTTPPVLDSDGSFFLYSKLTVDKSRWQQGNVFSCSVMHEALHNHYTQKSLSLSPGK
- TNF generated (Fc receptor): less than 2 ng/well
- terminal half-life [1]: greater than 300 hours
- blocking S100b induction of TNF-α compared with sRAGE [2]: at least as effective
- reduction of S100b induction of TNF-α ([2]; S100b 0.1 mg/ml FAC, 24 hours): ~70%
- inflammatory cytokines IL-1 and TNF-α ([3]; data not shown): can reduce
- Aβ plaques in the brain ([3]; treated for 3 months, vs vehicle and human IgG1, FIG. 14A): fewer Aβ plaques
- cognitive dysfunction (Morris water maze) ([3]; treated for 3 months, vs vehicle and human IgG1, FIG. 14B): less cognitive dysfunction
